Test results: US20040266664

Legend:
[1] = test system: T1, tetrapeptide epoxide with P3 1-naphthyl, other side chains leucine
T1 sequence: LXLL

[2] = test system: T2, tetrapeptide epoxide with P4 phenyl, other side chains leucine
T2 sequence: FLLL

Benzoylbenzoic-PFL-Ex = test system: T3, Benzoylbenzoic-PFL-Ex
T3 sequence: PFL

Ac-IVL-Ex = test system: T4, Ac-IVL-Ex
T4 sequence: IVL

[3] = test system: T5, tetrapeptide epoxide with P4 1-naphthyl, other side chains leucine
T5 sequence: XLLL

Ac-LALL-epoxide = test system: T6, Ac-LALL-epoxide
T6 sequence: XALX

Eponemycin = test system: T7, Eponemycin
T7 sequence: SL

Ac-GPFL-Ex = test system: T8, Ac-GPFL-Ex
T8 sequence: XPFX

dileucine α′,β′-epoxide = test system: T9, dileucine α′,β′-epoxide
T9 sequence: LL

[4] = test system: T10, tetrapeptide epoxide with P2 1-naphthyl, other side chains leucine
T10 sequence: LLXL

Ac-PPFL-Ex = test system: T11, Ac-PPFL-Ex
T11 sequence: XPFX

[5] = test system: T12, tetrapeptide epoxide with P4 methylphenyl, other side chains leucine
T12 sequence: XLLL

Ac-LLAL-epoxide = test system: T13, Ac-LLAL-epoxide
T13 sequence: XLAX

[6] = test system: T14, tetrapeptide epoxide with P4 p-benzoylphenyl, other side chains leucine
T14 sequence: XLLL

Ac-ALLL-epoxide = test system: T15, Ac-ALLL-epoxide
T15 sequence: XLLX

Ac-NorLPFL-Ex = test system: T16, Ac-NorLPFL-Ex
T16 sequence: XPFX

compound 18 = test system: T17, compound 18
T17 sequence: XLFX

[7] = test system: T18, monoleucine α′,β′-epoxide
T18 sequence: L

Ac-AVL-Ex = test system: T19, Ac-AVL-Ex
T19 sequence: AVL

[8] = test system: T20, tetraleucine α′,β′-epoxide
T20 sequence: LLLL

Ac-GGPFL-Ex = test system: T21, Ac-GGPFL-Ex
T21 sequence: XGPFX

Pyrazinecarbonyl-PFL-Ex = test system: T22, Pyrazinecarbonyl-PFL-Ex
T22 sequence: PFL

compound 16 = test system: T23, compound 16
T23 sequence: XLFX

Ac-LFLL-epoxide = test system: T24, Ac-LFLL-epoxide
T24 sequence: XFLX

Ac-LLFL-epoxide = test system: T25, Ac-LLFL-epoxide
T25 sequence: XLFX

[9] = test system: T26, N-acetyl-piperidinecarbonyl-PFL-Ex
T26 sequence: PFL

Isooctanioc-PFL-Ex = test system: T27, Isooctanioc-PFL-Ex
T27 sequence: PFL

[10] = test system: T28, N-dimethylaminobenzoyl-PFL-EX
T28 sequence: PFL

Ac-PFL-Ex = test system: T29, Ac-PFL-Ex
T29 sequence: PFL

trileucine α′,β′-epoxide = test system: T30, trileucine α′,β′-epoxide
T30 sequence: LLL

With “purified bovine erythrocyte 20S proteasome” the “kobs/[I], PGPH activity (Z-LLE-AMC)” value [1] was “not measurable”, the kobs/[I], chymotryptic-like activity (Suc-LLVY-AMC) [1] was 31000 M⁻¹ s⁻¹ and the “kobs/[I], tryptic-like activity (Boc-LRR-AMC)” value (from here on “kobs/[I], tryptic-like activity”) [1] was “not measurable”. The kobs/[I], PGPH activity (Z-LLE-AMC) [2] was 78 M⁻¹ s⁻¹, the kobs/[I], chymotryptic-like activity (Suc-LLVY-AMC) [2] was 37000 M⁻¹ s⁻¹ and the kobs/[I], tryptic-like activity (Boc-LRR-AMC) [2] was 5.5 M⁻¹ s⁻¹. The kobs/[I], PGPH activity (Benzoylbenzoic-PFL-Ex) was 140 M⁻¹ s⁻¹, the kobs/[I], chymotrypsin-like activity (Benzoylbenzoic-PFL-Ex) was 8.7 M⁻¹ s⁻¹ and the “kobs/[I], trypsin-like activity” value (Benzoylbenzoic-PFL-Ex) was “NI”. For the same substance, the kobs/[I], PGPH activity (Ac-IVL-Ex) was 14.6 M⁻¹ s⁻¹, the kobs/[I], chymotrypsin-like activity (Ac-IVL-Ex) was 5 M⁻¹ s⁻¹ and the kobs/[I], trypsin-like activity (Ac-IVL-Ex) was 6.7 M⁻¹ s⁻¹. The “kobs/[I], PGPH activity (Z-LLE-AMC)” value [3] was “not measurable”, the kobs/[I], chymotryptic-like activity (Suc-LLVY-AMC) [3] was 29000 M⁻¹ s⁻¹ and the “kobs/[I], tryptic-like activity” value [3] was “not measurable”. It also gave a kobs/[I], PGPH activity (Z-LLE-AMC) (Ac-LALL-epoxide) of 130 M⁻¹ s⁻¹, a kobs/[I], chymotrypsin-like activity (Suc-LLVY-AMC) (Ac-LALL-epoxide) of 1300 M⁻¹ s⁻¹ and a kobs/[I], tryptic-like activity (Boc-LRR-AMC) (Ac-LALL-epoxide) of 2 M⁻¹ s⁻¹. It also gave a kobs/[I], PGPH activity (Eponemycin) of 175 M⁻¹ s⁻¹, a kobs/[I], chymotrypsin-like activity (Eponemycin) of 58 M⁻¹ s⁻¹ and a kobs/[I], trypsin-like activity (Eponemycin) of 17 M⁻¹ s⁻¹. For the same substance, the kobs/[I], PGPH activity (Ac-GPFL-Ex) was 190 M⁻¹ s⁻¹, the kobs/[I], chymotrypsin-like activity (Ac-GPFL-Ex) was 5 M⁻¹ s⁻¹ and the “kobs/[I], trypsin-like activity” value (Ac-GPFL-Ex) was “NI”. For the same substance, the “kobs/[I], PGPH activity” value (dileucine α′,β′-epoxide) was “†”, the “kobs/[I], chymotrypsin-like activity” value (dileucine α′,β′-epoxide) was 3.1 (100-160 µM) and the “kobs/[I], trypsin-like activity” value (dileucine α′,β′-epoxide) was “†”. For the same substance, the “kobs/[I], PGPH activity (Z-LLE-AMC)” value [4] was “not measurable”, the kobs/[I], chymotryptic-like activity (Suc-LLVY-AMC) [4] was 29000 M⁻¹ s⁻¹ and the “kobs/[I], tryptic-like activity” value [4] was “not measurable”. For the same substance, the kobs/[I], PGPH activity (Ac-PPFL-Ex) was 10.6 M⁻¹ s⁻¹, the kobs/[I], chymotrypsin-like activity (Ac-PPFL-Ex) was 6.4 M⁻¹ s⁻¹ and the “kobs/[I], trypsin-like activity” value (Ac-PPFL-Ex) was “NI”. For the same substance, the kobs/[I], PGPH activity (Z-LLE-AMC) [5] was 50 M⁻¹ s⁻¹, the kobs/[I], chymotryptic-like activity (Suc-LLVY-AMC) [5] was 63000 M⁻¹ s⁻¹ and the kobs/[I], tryptic-like activity (Boc-LRR-AMC) [5] was 5.4 M⁻¹ s⁻¹. It also gave a kobs/[I], PGPH activity (Z-LLE-AMC) (Ac-LLAL-epoxide) of 20 M⁻¹ s⁻¹, a kobs/[I], chymotrypsin-like activity (Suc-LLVY-AMC) (Ac-LLAL-epoxide) of 16000 M⁻¹ s⁻¹ and a kobs/[I], tryptic-like activity (Boc-LRR-AMC) (Ac-LLAL-epoxide) of 4.1 M⁻¹ s⁻¹. The “kobs/[I], PGPH activity (Z-LLE-AMC)” value [6] was “not measurable”, the kobs/[I], chymotryptic-like activity (Suc-LLVY-AMC) [6] was 23000 M⁻¹ s⁻¹ and the “kobs/[I], tryptic-like activity” value [6] was “not measurable”. The kobs/[I], PGPH activity (Z-LLE-AMC) (Ac-ALLL-epoxide) was 220 M⁻¹ s⁻¹, the kobs/[I], chymotrypsin-like activity (Suc-LLVY-AMC) (Ac-ALLL-epoxide) was 5300 M⁻¹ s⁻¹ and the kobs/[I], tryptic-like activity (Boc-LRR-AMC) (Ac-ALLL-epoxide) was 3.8 M⁻¹ s⁻¹. For the same substance, the kobs/[I], PGPH activity (Ac-NorLPFL-Ex) was 115 M⁻¹ s⁻¹, the kobs/[I], chymotrypsin-like activity (Ac-NorLPFL-Ex) was 1.9 M⁻¹ s⁻¹ and the “kobs/[I], trypsin-like activity” value (Ac-NorLPFL-Ex) was “NI”. For the same substance, the “kassoc = kobs/[I], PGPH activity” value (compound 18) was 11 (10-150 µM), the “kassoc = kobs/[I], chymotrypsin-like activity” value (compound 18) was 5200 (0.11 µM) and the “kassoc = kobs/[I], trypsin-like activity” value (compound 18) was 580 (0.5-5 µM). The “kobs/[I], PGPH activity” value [7] was “†”, the “kobs/[I], chymotrypsin-like activity” value [7] was “†” and the “kobs/[I], trypsin-like activity” value [7] was “†”. It also gave a kassoc = kobs/[I], PGPH activity (NLVS) of 6.4 M⁻¹ s⁻¹, a kassoc = kobs/[I], chymotrypsin-like activity (NLVS) of 6790 M⁻¹ s⁻¹ and a kassoc = kobs/[I], trypsin-like activity (NLVS) of 5.3 M⁻¹ s⁻¹. For the same substance, the kobs/[I], PGPH activity (Ac-AVL-Ex) was 12.7 M⁻¹ s⁻¹, the kobs/[I], chymotrypsin-like activity (Ac-AVL-Ex) was 10.8 M⁻¹ s⁻¹ and the kobs/[I], trypsin-like activity (Ac-AVL-Ex) was 1.8 M⁻¹ s⁻¹. For the same substance, the “kobs/[I], PGPH activity” value [8] was 9.2 (100-160 µM), the “kobs/[I], chymotrypsin-like activity” value [8] was 14,000 (50-150 nm) and the “kobs/[I], trypsin-like activity” value [8] was “†”. For the same substance, the kobs/[I], PGPH activity (Ac-GGPFL-Ex) was 170 M⁻¹ s⁻¹, the kobs/[I], chymotrypsin-like activity (Ac-GGPFL-Ex) was 170 M⁻¹ s⁻¹ and the kobs/[I], trypsin-like activity (Ac-GGPFL-Ex) was 1.3 M⁻¹ s⁻¹. For the same substance, the kobs/[I], PGPH activity (Pyrazinecarbonyl-PFL-Ex) was 23 M⁻¹ s⁻¹, the kobs/[I], chymotrypsin-like activity (Pyrazinecarbonyl-PFL-Ex) was 520 M⁻¹ s⁻¹ and the kobs/[I], trypsin-like activity (Pyrazinecarbonyl-PFL-Ex) was 3.7 M⁻¹ s⁻¹. For the same substance, the “kassoc = kobs/[I], PGPH activity” value (compound 16) was 21 (80-150 µM), the “kassoc = kobs/[I], trypsin-like activity” value (compound 16) was 7.1 (80-130 µM) and the kobs/[I], chymotryptic-like activity (Suc-LLVY-AMC) (compound 16) was 183000 M⁻¹ s⁻¹. For the same substance, the “kobs/[I], PGPH activity (Z-LLE-AMC)” value (Ac-LFLL-epoxide) was “not measurable”, the kobs/[I], chymotrypsin-like activity (Suc-LLVY-AMC) (Ac-LFLL-epoxide) was 8500 M⁻¹ s⁻¹ and the “kobs/[I], tryptic-like activity” value (Ac-LFLL-epoxide) was “not measurable”. For the same substance, the “kobs/[I], PGPH activity (Z-LLE-AMC)” value (Ac-LLFL-epoxide) was “not measurable”, the kobs/[I], chymotrypsin-like activity (Suc-LLVY-AMC) (Ac-LLFL-epoxide) was 54000 M⁻¹ s⁻¹ and the “kobs/[I], tryptic-like activity” value (Ac-LLFL-epoxide) was “not measurable”. For the same substance, the kobs/[I], PGPH activity [9] was 45.3 M⁻¹ s⁻¹, the kobs/[I], chymotrypsin-like activity [9] was 31.2 M⁻¹ s⁻¹ and the “kobs/[I], trypsin-like activity” value [9] was “NI”. The kobs/[I], PGPH activity (Isooctanioc-PFL-Ex) was 194 M⁻¹ s⁻¹, the kobs/[I], chymotrypsin-like activity (Isooctanioc-PFL-Ex) was 190 M⁻¹ s⁻¹ and the “kobs/[I], trypsin-like activity” value (Isooctanioc-PFL-Ex) was “NI”. For the same substance, the kobs/[I], PGPH activity [10] was 150 M⁻¹ s⁻¹, the kobs/[I], chymotrypsin-like activity [10] was 220 M⁻¹ s⁻¹ and the “kobs/[I], trypsin-like activity” value [10] was “NI”. The kobs/[I], PGPH activity (Ac-PFL-Ex) was 32 M⁻¹ s⁻¹, the kobs/[I], chymotrypsin-like activity (Ac-PFL-Ex) was 42 M⁻¹ s⁻¹ and the “kobs/[I], trypsin-like activity” value (Ac-PFL-Ex) was “NI”. For the same substance, the “kobs/[I], PGPH activity” value (trileucine α′,β′-epoxide) was 120 (8-12 µM), the “kobs/[I], chymotrypsin-like activity” value (trileucine α′,β′-epoxide) was 780 (1-2.5 µM) and the kobs/[I], trypsin-like activity (trileucine α′,β′-epoxide) was 5.1 M⁻¹ s⁻¹.
